Paper PMC11014985, “TCTP regulates genotoxic stress and tumorigenicity via intercellular vesicular signaling” (EMBO Reports, 2024)

Molecular target: DDX3-DQAD (human) (UniProt O00571)

B1: TCTP (translationally controlled tumor protein) (natural protein)
chain: MIIYRDLISHDEMFSDIYKIREIADGLCLEVEGKMVSRTEGNIDDSLIGGNASAEGPEGEGTESTVITGVDIVMNHHLQETSFTKEAYKKYIKDYMKSIKGKLEEQRPERVKPFMTGAAEQIKHILANFKNYQFFIGENMNPDGMVALLDYREDGVTPYMIFFKDGLEMEKC
Work on B1 yielded an increase of the let-7c-5p signal bound to DDX-DQAD on adding TCTP (500 nM TCTP, 300 nM DDX3-DQAD, 50 nM biotinylated let-7c-5p, non-denaturing gel), in the presence of AMP-PNP of 200% and an increase of the let-7c-5p signal bound to DDX-DQAD on adding TCTP (500 nM TCTP, 300 nM DDX3-DQAD, 50 nM biotinylated let-7c-5p, non-denaturing gel), in the presence of ATP of 50%.
